Measurements published in the RNAGym collection of RNA variant scans (doi:10.1073/pnas.2313332121).

B1: TPR t1 (parent)
chain: GACCAAUCUGCCCUCAGAGCUCGAGAACAUCUUCGGAUGCAGAGGAGGCAGGCUUCGGUGGCGCGAUAGCGCCAACGUCCUCAACCUCCAAUGCAUCCCACCACAUGAUGAUGCCUGAAGAGCCUUGGUUUUUUG

Variants of: B1
Assay: polymerase ribozyme fitness, log enrichment relative to wild type (log ratio); higher = more active; in vitro selection for triplet polymerase activity
How it was run: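 After PCR construction and transcription, each subunit's mutant library from a heterodimeric triplet polymerase ribozyme was annealed with a biotinylated primer, the partner subunit and triplets. Incubation was frozen, at −7 °C, and extended constructs were gel-excised, bound to streptavidin beads and amplified by RT-PCR, in one selection round done in triplicate. Fitness is the logarithm of a genotype's enrichment divided by that of the wild type, from inverse-variance-weighted replicate averages of Illumina-sequenced inputs and outputs. The base of the logarithm is 2, and genotypes needed ≥10 input reads and ≥1 read per output.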

| Variant | polymerase ribozyme fitness (log ratio) |
| --- | --- |
| U7G A27G G48C C86G | -0.81 |
| C8G A91U | -1.17 |
| C8A C86G C102U C104U G110A | -4.28 |
| U7C C12G | 0.687 |
| U7C C12A | -0.242 |
| C8G A43U A95U U109A C123G | -5.23 |
| C8G C11G C56A C104A | -1.39 |
| U7C A16U C79U C85A | -4.35 |
| C8A C62U A74U | 0.227 |
| U7A G48A A50G G77A C101U U109A | -5.13 |
| C8A C11G C13U C20A C49G | -3.3 |
| U7A C89U | -0.565 |
| C8A G120U | 0.91 |
| C8G A18C G36U C72A U78G C82A C85G | -5.25 |
| C8A C20G G45U C73U C123G | -5.63 |
| U7G C80A C124A | -1.1 |
| C8A U54G A111U U116G A119U U130G | -7.62 |
| C8A C15U A46U A118G | -1.21 |
| C8A U129A | -0.0105 |
| C8A C15U G47C G63A C98A C114U G117A U129G | -7.35 |
| C8A C11A C22A U32G U33C C34A C40G C72U A100U C115U | -6.9 |

| Variant | polymerase ribozyme fitness (log ratio) |
| --- | --- |
| U7C A74G G110A A118U | -0.453 |
| C8G C20G C72U A95G | -3.64 |
| U7G C73U U78A | 0.634 |
| C8G A50C C72A G93A | -0.538 |
| C8A C12U A46C G93A C115A | 0.651 |
| U7G U78C | 0.451 |
| U7C U112C G113U G135A | -3.06 |
| C8A A18C U21G A68G | -6.09 |
| C8A C28G C53A | -2.01 |
| U7A G52A A111C | 0.419 |
| U7C C20U C62A A83C A119G | -1.83 |
| C8A A18C C22G | -4.25 |
| U7A G45U C56G A66G | -3.29 |
| U7C C12U C22U G63A | -4.58 |
| U7A C34A C97U | -1.97 |
| C8A C56G A91C C123A | 0.619 |
| U7G C22G G117U U130C | -2.69 |
| C8A C40U G61U U78A C80G A100C | -6.33 |
| U7G C72U G93C C115U | 0.15 |
| U7A G60U C104A U125A | -1.13 |
| C8A G44U G52A | -0.478 |

| Variant | polymerase ribozyme fitness (log ratio) |
| --- | --- |
| C8A U9G U21G | -1.13 |
| C8A C28A G45A C56G G69U | -2.82 |
| U7G G52A U106C G122U U131G | -0.951 |
| U7A C15U C56A G69U U106G G120C | -0.793 |
| U7G G47A C56A C70G | -5.1 |
| C8A C28G U96A | -3.08 |
| C8A C72U U87A C99U | -2.56 |
| U7A C73G U116G | -2.7 |
| C8A C56A C70A C98U C123G | -1.64 |
| C8G A27U C89G | -4.7 |
| U7G G77A A83C | 0.167 |
| U7G C22U A68C G93U C115U A121G | -5.51 |
| U7G A16C G42A | -4.17 |
| U7A G69U C98U | -0.115 |
| U7A U55G | -0.938 |
| U7A C12G C89G A111C | -2.35 |
| U7C A37U C73A | -0.516 |
| C8G A75G C88A C124U | 1.57 |
| C8A A100C | -0.0614 |
| C8G C12A C20U A37C U92A G113U | -1.85 |
| U7A C13G U32C U38G | -1.31 |

| Variant | polymerase ribozyme fitness (log ratio) |
| --- | --- |
| C8A U59C A105G C123A | -2.08 |
| U7G C8U A29U C40A G48A | -2.66 |
| C8G C28A C72G | -3.76 |
| C8A G63C C86A G93C | -3.35 |
| C8A G39A | -0.0887 |
| C8A A16U G120U U130G | 1.06 |
| U7C G107A U109A | -4.11 |
| C8A C79G C85G | -2.78 |
| U7G C13A C49G U96C | -0.772 |
| U7G C56A G57A G93U | -1.03 |
| C8A C79U C98G C114U | -6.7 |
| U7A U78C G93U G113C | -3.01 |
| U7A G35C A41C C64U C79U G113U | -7.12 |
| U7C A66C G77C C88A | -2.34 |
| C8G C15U G48C C124G | 0.169 |
| C8A G36U C76A U131C | -1.09 |
| U7G C12U C15A C22G C104U | -3.41 |
| U7A U14A C86U A90U | -3.61 |
| U7A G93C | -0.696 |
| C8A U38G A43C G61C C123A | -4.73 |
